No end group written: not given here. *: point of attachment. MTX = methotrexate, its gamma-carboxylic acid amide-linked to the peptide N-terminus, CN(Cc1cnc2nc(N)nc(N)c2n1)c1ccc(C(=O)N[C@@H](CCC(=O)*)C(=O)O)cc1
B1: MTX-PRGGSV (peptide)
peptide: {MTX}-PRGGSV-NH2
B2: MTX-cIBR conjugate (methotrexate-cyclo-Leu Pro Arg Gly Gly Ser Val Leu Val Thr) (peptide)
peptide: {MTX}-LPRGGSVLVT
modifications: also: cyclic peptide, ring closure not given here
B3: MTX-cIBL conjugate (peptide)
peptide: {MTX}-QTSVSPSKVI
modifications: also: cyclic peptide, ring not given here
B4: MTX-VILPRG (peptide)
peptide: {MTX}-VILPRG-NH2

Key:
Experiment in all cases: cell-based or functional assay
[1] = biological target: LFA-1 on mouse L1210 T-cells (mouse, UniProt P24063 24-1162; P11835 24-771)
Sequence of LFA-1 on mouse L1210 T-cells (P24063 24-1162, chain 1 of 2): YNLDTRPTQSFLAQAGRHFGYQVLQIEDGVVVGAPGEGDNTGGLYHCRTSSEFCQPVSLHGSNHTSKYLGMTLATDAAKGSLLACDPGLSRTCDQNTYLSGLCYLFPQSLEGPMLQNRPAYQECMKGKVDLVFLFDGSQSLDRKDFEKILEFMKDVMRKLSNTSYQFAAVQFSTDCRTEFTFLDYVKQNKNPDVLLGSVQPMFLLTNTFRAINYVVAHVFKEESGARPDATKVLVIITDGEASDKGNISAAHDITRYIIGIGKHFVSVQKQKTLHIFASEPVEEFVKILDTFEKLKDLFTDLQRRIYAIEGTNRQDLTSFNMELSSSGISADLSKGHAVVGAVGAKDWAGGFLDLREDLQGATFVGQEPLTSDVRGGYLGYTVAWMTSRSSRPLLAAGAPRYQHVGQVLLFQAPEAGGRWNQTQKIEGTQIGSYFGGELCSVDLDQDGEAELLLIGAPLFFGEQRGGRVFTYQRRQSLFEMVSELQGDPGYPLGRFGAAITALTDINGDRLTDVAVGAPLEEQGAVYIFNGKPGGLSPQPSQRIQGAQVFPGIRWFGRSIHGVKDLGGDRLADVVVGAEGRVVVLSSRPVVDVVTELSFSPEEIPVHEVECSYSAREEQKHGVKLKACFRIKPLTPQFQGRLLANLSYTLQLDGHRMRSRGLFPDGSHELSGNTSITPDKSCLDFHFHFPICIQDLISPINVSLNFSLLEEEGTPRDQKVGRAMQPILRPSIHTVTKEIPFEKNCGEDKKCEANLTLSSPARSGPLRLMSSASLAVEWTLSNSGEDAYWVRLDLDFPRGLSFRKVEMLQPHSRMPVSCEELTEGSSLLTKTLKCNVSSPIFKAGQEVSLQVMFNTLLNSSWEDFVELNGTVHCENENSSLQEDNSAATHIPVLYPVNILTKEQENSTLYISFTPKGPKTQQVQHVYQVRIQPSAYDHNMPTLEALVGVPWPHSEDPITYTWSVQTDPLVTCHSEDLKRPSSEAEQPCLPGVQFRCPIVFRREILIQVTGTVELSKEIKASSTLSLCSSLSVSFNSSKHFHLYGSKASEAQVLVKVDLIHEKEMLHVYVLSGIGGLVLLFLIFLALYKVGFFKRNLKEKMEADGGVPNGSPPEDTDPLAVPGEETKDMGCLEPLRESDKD
Sequence of LFA-1 on mouse L1210 T-cells (P11835 24-771, chain 2 of 2): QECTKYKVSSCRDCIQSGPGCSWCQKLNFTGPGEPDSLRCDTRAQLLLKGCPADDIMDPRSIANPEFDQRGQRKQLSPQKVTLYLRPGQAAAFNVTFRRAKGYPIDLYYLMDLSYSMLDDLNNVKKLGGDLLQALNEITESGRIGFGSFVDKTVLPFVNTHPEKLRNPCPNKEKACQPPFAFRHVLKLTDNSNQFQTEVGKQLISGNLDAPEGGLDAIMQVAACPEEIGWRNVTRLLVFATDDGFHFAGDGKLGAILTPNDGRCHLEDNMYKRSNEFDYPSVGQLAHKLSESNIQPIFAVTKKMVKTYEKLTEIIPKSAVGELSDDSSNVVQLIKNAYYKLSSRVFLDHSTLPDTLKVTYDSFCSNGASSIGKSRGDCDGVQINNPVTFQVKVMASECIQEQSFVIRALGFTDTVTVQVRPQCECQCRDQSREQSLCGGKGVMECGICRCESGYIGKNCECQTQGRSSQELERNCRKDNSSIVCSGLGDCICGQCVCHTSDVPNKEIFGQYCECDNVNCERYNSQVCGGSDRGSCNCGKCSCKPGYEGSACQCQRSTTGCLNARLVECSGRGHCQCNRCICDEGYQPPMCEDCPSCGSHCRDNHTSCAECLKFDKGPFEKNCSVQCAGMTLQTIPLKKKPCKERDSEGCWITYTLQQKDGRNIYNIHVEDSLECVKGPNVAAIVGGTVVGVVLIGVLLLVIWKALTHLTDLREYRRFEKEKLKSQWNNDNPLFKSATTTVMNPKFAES

[2] = biological target: LFA-1 receptor on human Molt-3 T-cells (human, UniProt P20701 26-1170; P05107 23-769)
Sequence of LFA-1 receptor on human Molt-3 T-cells (P20701 26-1170, chain 1 of 2): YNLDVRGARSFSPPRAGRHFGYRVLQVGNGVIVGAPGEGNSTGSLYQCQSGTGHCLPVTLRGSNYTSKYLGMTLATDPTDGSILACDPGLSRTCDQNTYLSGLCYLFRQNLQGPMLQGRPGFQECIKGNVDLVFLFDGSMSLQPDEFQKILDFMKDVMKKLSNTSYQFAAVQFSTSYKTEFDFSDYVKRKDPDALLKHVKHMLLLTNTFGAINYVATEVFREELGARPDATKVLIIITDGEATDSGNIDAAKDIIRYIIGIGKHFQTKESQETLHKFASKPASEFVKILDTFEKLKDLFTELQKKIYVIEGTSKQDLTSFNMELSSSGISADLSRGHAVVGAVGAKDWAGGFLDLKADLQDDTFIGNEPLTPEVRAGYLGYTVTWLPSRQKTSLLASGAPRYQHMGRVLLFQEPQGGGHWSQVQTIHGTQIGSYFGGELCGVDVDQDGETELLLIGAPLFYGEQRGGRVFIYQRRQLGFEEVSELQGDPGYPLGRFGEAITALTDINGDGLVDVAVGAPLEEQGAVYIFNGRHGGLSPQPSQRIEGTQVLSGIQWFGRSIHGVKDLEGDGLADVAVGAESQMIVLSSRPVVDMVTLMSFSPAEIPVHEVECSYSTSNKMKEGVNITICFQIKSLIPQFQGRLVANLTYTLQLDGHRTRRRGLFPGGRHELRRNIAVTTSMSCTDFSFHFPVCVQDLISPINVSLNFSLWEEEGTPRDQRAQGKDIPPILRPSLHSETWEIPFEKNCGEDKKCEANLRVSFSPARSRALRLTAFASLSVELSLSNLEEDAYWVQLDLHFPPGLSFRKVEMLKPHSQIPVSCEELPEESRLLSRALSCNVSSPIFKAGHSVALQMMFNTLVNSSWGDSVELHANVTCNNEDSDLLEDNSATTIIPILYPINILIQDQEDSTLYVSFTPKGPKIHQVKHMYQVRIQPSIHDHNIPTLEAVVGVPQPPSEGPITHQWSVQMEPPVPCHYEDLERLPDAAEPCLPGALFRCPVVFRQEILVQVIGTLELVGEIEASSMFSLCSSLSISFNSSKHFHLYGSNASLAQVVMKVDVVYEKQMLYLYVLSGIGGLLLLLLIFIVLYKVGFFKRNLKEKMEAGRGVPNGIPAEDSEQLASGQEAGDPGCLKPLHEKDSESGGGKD
Sequence of LFA-1 receptor on human Molt-3 T-cells (P05107 23-769, chain 2 of 2): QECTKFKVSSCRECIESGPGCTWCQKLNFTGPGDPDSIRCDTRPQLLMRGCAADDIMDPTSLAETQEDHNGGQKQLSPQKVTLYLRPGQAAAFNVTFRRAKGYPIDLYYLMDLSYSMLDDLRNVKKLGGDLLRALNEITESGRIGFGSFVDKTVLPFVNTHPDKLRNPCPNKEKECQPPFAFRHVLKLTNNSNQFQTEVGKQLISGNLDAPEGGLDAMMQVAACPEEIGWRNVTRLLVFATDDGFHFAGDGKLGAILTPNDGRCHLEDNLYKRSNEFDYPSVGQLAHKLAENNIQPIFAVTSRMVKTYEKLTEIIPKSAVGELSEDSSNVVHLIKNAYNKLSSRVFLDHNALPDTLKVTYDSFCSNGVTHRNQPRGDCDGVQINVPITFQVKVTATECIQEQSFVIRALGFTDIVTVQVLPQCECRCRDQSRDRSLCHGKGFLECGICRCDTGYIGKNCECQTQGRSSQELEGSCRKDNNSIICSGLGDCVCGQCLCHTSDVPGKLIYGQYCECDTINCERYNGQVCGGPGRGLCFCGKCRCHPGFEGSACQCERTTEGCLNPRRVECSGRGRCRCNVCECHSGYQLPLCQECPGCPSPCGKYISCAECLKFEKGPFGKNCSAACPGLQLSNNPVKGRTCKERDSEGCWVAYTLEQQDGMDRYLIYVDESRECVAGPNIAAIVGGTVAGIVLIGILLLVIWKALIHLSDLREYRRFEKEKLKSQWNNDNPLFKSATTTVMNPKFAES

[3] = biological target: dihydrofolate reductase enzyme (DHFR)

Binder | IC50 in micromolar, growth inhibition, L1210 mouse leukemia cells [1] [µM] | IC50 in micromolar, cytotoxicity, Molt-3 T-cells [2] [µM] | Km relative to MTX (Dixon plot, DHFR inhibition assay) [3] [fold]
B1 | 1.6 | 5.13 | 
B2 | 5.5 | 2.75 | ~15
B3 | 9.14 | 2.68 | ~4
B4 | 0.7 | 9.12 | 

Source: patent US20040037775A1 (published 2004)
